B1: Golgi SNAP receptor complex member 2 (Homo sapiens), O14653 (parent)
chain: MDPLFQQTHKQVHEIQSCMGRLETADKQSVHIVENEIQASIDQIFSRLERLEILSSKEPPNKRQNARLRVDQLKYDVQHLQTALRNFQHRRHAREQQERQREELLSRTFTTNDSDTTIPMDESLQFNSSLQKVHNGMDDLILDGHNILDGLRTQRLTLKGTQKKILDIANMLGLSNTVMRLIEKRAFQDKYFMIGGMLLTCVVMFLVVQYLT
partner: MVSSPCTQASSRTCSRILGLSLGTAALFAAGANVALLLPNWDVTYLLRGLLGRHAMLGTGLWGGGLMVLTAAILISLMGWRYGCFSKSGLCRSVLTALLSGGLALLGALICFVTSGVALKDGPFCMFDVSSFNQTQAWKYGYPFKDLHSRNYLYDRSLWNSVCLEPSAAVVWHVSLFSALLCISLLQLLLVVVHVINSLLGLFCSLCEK
B2: Transmembrane protein 43 (Homo sapiens), Q9BTV4 (parent)
chain: MAANYSSTSTRREHVKVKTSSQPGFLERLSETSGGMFVGLMAFLLSFYLIFTNEGRALKTATSLAEGLSLVVSPDSIHSVAPENEGRLVHIIGALRTSKLLSDPNYGVHLPAVKLRRHVEMYQWVETEESREYTEDGQVKKETRYSYNTEWRSEIINSKNFDREIGHKNPSAMAVESFMATAPFVQIGRFFLSSGLIDKVDNFKSLSLSKLEDPHVDIIRRGDFFYHSENPKYPEVGDLRVSFSYAGLSGDDPDLGPAHVVTVIARQRGDQLVPFSTKSGDTLLLLHHGDFSAEEVFHRELRSNSMKTWGLRAAGWMAMFMGLNLMTRILYTLVDWFPVFRDLVNIGLKAFAFCVATSLTLLTVAAGWLFYRPLWALLIAGLALVPILVARTRVPAKKLE
partner: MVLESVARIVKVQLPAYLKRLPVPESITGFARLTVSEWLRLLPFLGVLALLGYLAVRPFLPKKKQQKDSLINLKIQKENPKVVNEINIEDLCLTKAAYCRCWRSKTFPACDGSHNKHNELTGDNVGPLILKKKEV
B3: Golgi SNAP receptor complex member 2 (Homo sapiens), O14653 (parent)
chain: B1 chain
partner: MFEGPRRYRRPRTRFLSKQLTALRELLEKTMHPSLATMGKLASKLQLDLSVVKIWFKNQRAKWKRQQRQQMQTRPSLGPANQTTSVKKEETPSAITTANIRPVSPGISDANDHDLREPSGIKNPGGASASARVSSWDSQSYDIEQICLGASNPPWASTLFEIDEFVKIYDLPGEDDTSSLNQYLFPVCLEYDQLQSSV
B4: Golgi SNAP receptor complex member 2 (Homo sapiens), O14653 (parent)
chain: B1 chain
partner: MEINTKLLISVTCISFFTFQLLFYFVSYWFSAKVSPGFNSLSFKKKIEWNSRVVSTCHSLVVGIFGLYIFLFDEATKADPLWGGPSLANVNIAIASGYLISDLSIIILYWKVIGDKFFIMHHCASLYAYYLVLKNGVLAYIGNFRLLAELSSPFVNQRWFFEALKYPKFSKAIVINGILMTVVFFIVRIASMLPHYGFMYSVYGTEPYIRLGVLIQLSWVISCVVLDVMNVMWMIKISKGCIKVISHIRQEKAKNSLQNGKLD
B5: Ceroid-lipofuscinosis neuronal protein 6 (Homo sapiens), Q9NWW5 (parent)
chain: MEATRRRQHLGATGGPGAQLGASFLQARHGSVSADEAARTAPFHLDLWFYFTLQNWVLDFGRPIAMLVFPLEWFPLNKPSVGDYFHMAYNVITPFLLLKLIERSPRTLPRSITYVSIIIFIMGASIHLVGDSVNHRLLFSGYQHHLSVRENPIIKNLKPETLIDSFELLYYYDEYLGHCMWYIPFFLILFMYFSGCFTASKAESLIPGPALLLVAPSGLYYWYLVTEGQIFILFIFTFFAMLALVLHQKRKRLFLDSNGLFLFSSFALTLLLVALWVAWLWNDPVLRKKYPGVIYVPEPWAFYTLHVSSRH
partner: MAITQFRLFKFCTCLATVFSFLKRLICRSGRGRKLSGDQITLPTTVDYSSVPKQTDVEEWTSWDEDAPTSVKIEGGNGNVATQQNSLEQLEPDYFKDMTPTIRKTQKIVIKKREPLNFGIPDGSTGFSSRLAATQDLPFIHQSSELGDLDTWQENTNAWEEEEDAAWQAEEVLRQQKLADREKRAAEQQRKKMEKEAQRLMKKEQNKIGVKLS
B6: Dolichol kinase (Homo sapiens), Q9UPQ8 (parent)
chain: MTRECPSPAPGPGAPLSGSVLAEAAVVFAVVLSIHATVWDRYSWCAVALAVQAFYVQYKWDRLLQQGSAVFQFRMSANSGLLPASMVMPLLGLVMKERCQTAGNPFFERFGIVVAATGMAVALFSSVLALGITRPVPTNTCVILGLAGGVIIYIMKHSLSVGEVIEVLEVLLIFVYLNMILLYLLPRCFTPGEALLVLGGISFVLNQLIKRSLTLVESQGDPVDFFLLVVVVGMVLMGIFFSTLFVFMDSGTWASSIFFHLMTCVLSLGVVLPWLHRLIRRNPLLWLLQFLFQTDTRIYLLAYWSLLATLACLVVLYQNAKRSSSESKKHQAPTIARKYFHLIVVATYIPGIIFDRPLLYVAATVCLAVFIFLEYVRYFRIKPLGHTLRSFLSLFLDERDSGPLILTHIYLLLGMSLPIWLIPRPCTQKGSLGGARALVPYAGVLAVGVGDTVASIFGSTMGEIRWPGTKKTFEGTMTSIFAQIISVALILIFDSGVDLNYSYAWILGSISTVSLLEAYTTQIDNLLLPLYLLILLMA
partner: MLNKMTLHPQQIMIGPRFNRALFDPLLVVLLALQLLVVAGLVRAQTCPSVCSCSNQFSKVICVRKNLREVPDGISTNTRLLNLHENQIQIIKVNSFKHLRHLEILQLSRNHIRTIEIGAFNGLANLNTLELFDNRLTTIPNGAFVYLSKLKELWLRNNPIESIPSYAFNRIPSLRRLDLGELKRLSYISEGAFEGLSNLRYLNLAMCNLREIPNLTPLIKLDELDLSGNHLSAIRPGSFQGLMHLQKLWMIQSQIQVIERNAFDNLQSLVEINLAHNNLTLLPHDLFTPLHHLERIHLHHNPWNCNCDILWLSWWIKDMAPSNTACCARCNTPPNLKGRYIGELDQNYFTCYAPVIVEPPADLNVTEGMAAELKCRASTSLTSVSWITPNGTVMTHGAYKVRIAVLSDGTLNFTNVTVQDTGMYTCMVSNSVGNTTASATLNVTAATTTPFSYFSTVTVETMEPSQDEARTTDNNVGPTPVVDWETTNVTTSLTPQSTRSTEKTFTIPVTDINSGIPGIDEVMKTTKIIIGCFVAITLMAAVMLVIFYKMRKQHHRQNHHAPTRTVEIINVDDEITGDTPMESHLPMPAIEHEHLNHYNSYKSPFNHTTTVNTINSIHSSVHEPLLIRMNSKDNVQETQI
B7: Golgi SNAP receptor complex member 2 (Homo sapiens), O14653 (parent)
chain: B1 chain
partner: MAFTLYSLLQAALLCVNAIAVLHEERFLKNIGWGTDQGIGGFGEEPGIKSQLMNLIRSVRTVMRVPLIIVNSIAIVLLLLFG

Variants of: B1
Details: with TM4SF19, Q96DZ7

Row | effect of a mutation on the interaction | Variant
1 | with no effect | MDPLFQQTHKQVHEIQSCMGRLETADKQSVHIVENEIQASIDQIFSRLERLEILSSKEPPNKRQNARLRVDQLKYDVQHLQTALRNFQHRRHAREQQERQREELLSRTFTTNDSDTTIPMDESLQFNSSLQKVHNGMDDLILDWHNILDGLRTQRLTLKGTQKKILDIANMLGLSNTVMRLIEKRAFQDKYFMIGGMLLTCVVMFLVVQYLT [G144W]

Variants of: B2
Details: with cisd2_human CISD2, Q8N5K1

Row | effect of a mutation on the interaction | Variant
2 | disrupting interaction strength | MAANYSSTSTRREHVKVKTSSQPGFLERLSETSGGMFVGLMAFLLSFYLIFTNEGRALKTATSLAEGLSLVVSPDSIHSVAPENEGRLVHIIGALRTSKLLSDPNYGVHLPAVKLRRHVEMYQWVETEESREYTEDGQVKKKTRYSYNTEWRSEIINSKNFDREIGHKNPSAMAVESFMATAPFVQIGRFFLSSGLIDKVDNFKSLSLSKLEDPHVDIIRRGDFFYHSENPKYPEVGDLRVSFSYAGLSGDDPDLGPAHVVTVIARQRGDQLVPFSTKSGDTLLLLHHGDFSAEEVFHRELRSNSMKTWGLRAAGWMAMFMGLNLMTRILYTLVDWFPVFRDLVNIGLKAFAFCVATSLTLLTVAAGWLFYRPLWALLIAGLALVPILVARTRVPAKKLE [E142K]
3 | with no effect | MAANYSSTSTRREHVKVKTSSQPGFLEWLSETSGGMFVGLMAFLLSFYLIFTNEGRALKTATSLAEGLSLVVSPDSIHSVAPENEGRLVHIIGALRTSKLLSDPNYGVHLPAVKLRRHVEMYQWVETEESREYTEDGQVKKETRYSYNTEWRSEIINSKNFDREIGHKNPSAMAVESFMATAPFVQIGRFFLSSGLIDKVDNFKSLSLSKLEDPHVDIIRRGDFFYHSENPKYPEVGDLRVSFSYAGLSGDDPDLGPAHVVTVIARQRGDQLVPFSTKSGDTLLLLHHGDFSAEEVFHRELRSNSMKTWGLRAAGWMAMFMGLNLMTRILYTLVDWFPVFRDLVNIGLKAFAFCVATSLTLLTVAAGWLFYRPLWALLIAGLALVPILVARTRVPAKKLE [R28W]

Variants of: B3
Details: with leutx_human LEUTX

Row | effect of a mutation on the interaction | Variant
4 | with no effect | MDPLFQQTHKQVHEIQSCMGRLETADKQSVHIVENEIQASIDQIFSRLERLEILSSKEPPNKRQNARLRVDQLKYDVQHLQTALRNFQHRRHAREQQERQREELLSRTFTTNDSDTTIPMDESLQFNSSLQKVHNGMDDLILDWHNILDGLRTQRLTLKGTQKKILDIANMLGLSNTVMRLIEKRAFQDKYFMIGGMLLTCVVMFLVVQYLT [G144W]

Variants of: B4
Details: with tlcd4_human TLCD4, Q96MV1

Row | effect of a mutation on the interaction | Variant
5 | with no effect | MDPLFQQTHKQVHEIQSCMGRLETADKQSVHIVENEIQASIDQIFSRLERLEILSSKEPPNKRQNARLRVDQLKYDVQHLQTALRNFQHRRHAREQQERQREELLSRTFTTNDSDTTIPMDESLQFNSSLQKVHNGMDDLILDWHNILDGLRTQRLTLKGTQKKILDIANMLGLSNTVMRLIEKRAFQDKYFMIGGMLLTCVVMFLVVQYLT [G144W]

Variants of: B5
Details: with rcas1_human EBAG9, O00559

Row | effect of a mutation on the interaction | Variant
6 | with no effect | MEATRRRQHLGATGGPGAQLGASFLQARHGSVSADEAARTAPFHLDFWFYFTLQNWVLDFGRPIAMLVFPLEWFPLNKPSVGDYFHMAYNVITPFLLLKLIERSPRTLPRSITYVSIIIFIMGASIHLVGDSVNHRLLFSGYQHHLSVRENPIIKNLKPETLIDSFELLYYYDEYLGHCMWYIPFFLILFMYFSGCFTASKAESLIPGPALLLVAPSGLYYWYLVTEGQIFILFIFTFFAMLALVLHQKRKRLFLDSNGLFLFSSFALTLLLVALWVAWLWNDPVLRKKYPGVIYVPEPWAFYTLHVSSRH [L47F]
7 | with no effect | MEATRTRQHLGATGGPGAQLGASFLQARHGSVSADEAARTAPFHLDLWFYFTLQNWVLDFGRPIAMLVFPLEWFPLNKPSVGDYFHMAYNVITPFLLLKLIERSPRTLPRSITYVSIIIFIMGASIHLVGDSVNHRLLFSGYQHHLSVRENPIIKNLKPETLIDSFELLYYYDEYLGHCMWYIPFFLILFMYFSGCFTASKAESLIPGPALLLVAPSGLYYWYLVTEGQIFILFIFTFFAMLALVLHQKRKRLFLDSNGLFLFSSFALTLLLVALWVAWLWNDPVLRKKYPGVIYVPEPWAFYTLHVSSRH [R6T]
8 | with no effect | MEATRRRQHLGATGGPGAQLGASFLQARHGSVSADEAARTAPFHLDLWFYFTLQNWVLDFGRPIAMLVFPLEWFPLNKPSVGDYFHMAYNVITPFLLLKLIERSPRTLPRSITYVSIIIFIMDASIHLVGDSVNHRLLFSGYQHHLSVRENPIIKNLKPETLIDSFELLYYYDEYLGHCMWYIPFFLILFMYFSGCFTASKAESLIPGPALLLVAPSGLYYWYLVTEGQIFILFIFTFFAMLALVLHQKRKRLFLDSNGLFLFSSFALTLLLVALWVAWLWNDPVLRKKYPGVIYVPEPWAFYTLHVSSRH [G123D]

Variants of: B6
Details: with lrc4c_human LRRC4C

Row | effect of a mutation on the interaction | Variant
9 | disrupting interaction strength | MTRECPSPAPGPGAPLSGSVLAEAAVVFAVVLSIHATVWDRYSWCAVALAVQAFYVQYKWDRLLQQGSAVFQFRMSANSGLLPASMVMPLLGLVMKERCQTAGNPFFERFGIVVAATGMAVALFSSVLALGITRPVPTNTCVILGLAGGVIIYIMKHSLSVGEVIEVLEVLLIFVYLNMILLYLLPRCFTPGEALLVLGGISFVLNQLIKRSLTLVESQGDPVDFFLLVVVVGMVLMGIFFSTLFVFMDSGTWASSIFFHLMTCVLSLGVVLPWLHRLIRRNPLLWLLQFLFQTDTRIYLLAYWSLLATLACLVVLYQNAKRSSSESKKHQAPTIARKYFHLIVVATYIPGIIFDRPLLYVAATVCLAVFIFLEYVRYFRIKPLGHTLRSFLSLFLDERDSGPLILTHIYLLLGMSLPIWLIPRPCTQKGSLGGARALVPSAGVLAVGVGDTVASIFGSTMGEIRWPGTKKTFEGTMTSIFAQIISVALILIFDSGVDLNYSYAWILGSISTVSLLEAYTTQIDNLLLPLYLLILLMA [Y441S]

Variants of: B7
Details: with ir3ip_human IER3IP1, Q9Y5U9

Row | effect of a mutation on the interaction | Variant
10 | with no effect | MDPLFQQTHKQVHEIQSCMGRLETADKQSVHIVENEIQASIDQIFSRLERLEILSSKEPPNKRQNARLRVDQLKYDVQHLQTALRNFQHRRHAREQQERQREELLSRTFTTNDSDTTIPMDESLQFNSSLQKVHNGMDDLILDWHNILDGLRTQRLTLKGTQKKILDIANMLGLSNTVMRLIEKRAFQDKYFMIGGMLLTCVVMFLVVQYLT [G144W]

Source: IntAct's records for PubMed 32296183
